One data set concerns the target T1, FRS2_PTB (Homo sapiens, UniProt Q8WU20).
T1 construct: FRS2-PTB 11-140aa; 6xHis; made in house; host or cells: E. coli BL21 (DE3)
T1 sequence (Q8WU20 11-140): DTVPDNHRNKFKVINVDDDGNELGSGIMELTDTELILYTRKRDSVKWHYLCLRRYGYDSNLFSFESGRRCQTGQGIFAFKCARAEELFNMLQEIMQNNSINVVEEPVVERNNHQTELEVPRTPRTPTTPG
Kind of data set: nano differential scanning fluorimetry (nanoDSF). It counts as binding. The following applies: 500 μM ligand. As to the method:
(§1) Assay establishment and pilot nanoDSF experiments were performed with a Tycho® system. Each experiment was performed by mixing the protein and ligand of interest at a 1:1 ratio and subsequent incubation for 15–30 min at room temperature. Controls of protein alone and ligand alone in identical buffer compositions as for the complex were measured accordingly. The temperature gradient ranged from 35 to 95 °C, and the heating rate was 30 °C/min. Inflection temperatures TI were calculated from the first derivative of the spectra obtained at the ratio of the signals at 350 nm to those at 330 nm. ΔTI of a complex was calculated as following: ΔTI,complex = TI,complex – TI,protein.
The in-built software version 1.1.5.668 (NanoTemper Technologies, Munich, Germany) and Microsoft Office Excel 365 (Microsoft Corp., Seattle, USA) was used for data analysis. Data was plotted with GraphPad Prism vers. 8.3.0 (GraphPad Software, San Diego, USA).
Purified FRS2_PTB or GB1_FRS2_PTB protein tagged with 6 × Histidine residues and the B1 immunoglobulin binding domain of the streptococcal protein G (GB1) were diluted in the protein buffer (100 mM sodium phosphate, 50 mM NaCl, 0.5 mM EDTA, 50 mM arginine, 1 mM TCEP, pH 7.0) to 30 μM, GB-1 to 40 μM. FGFR_PEP, compounds or paracetamol (PARA) as negative control were dissolved at 1 mM in the protein buffer supplemented with 10% DMSO. Compound and protein were mixed at 1:1 volume ratio yielding a final concentration of 15 μM and 20 μM for FRS2_PTB/GB1_FRS2_PTB and GB1, respectively, as well as 500 μM for FGFR_PEP or compounds. The mixture was incubated for 15 min. Each compound was measured in triplicates. Protein controls were measured in six replicates in the beginning. The quality of the screen was assessed by the Z-factor. nanoDSF validation studies were performed on a Prometheus® system in high sensitivity capillaries. Samples were heated with 1 °C/min from 20 to 95 °C. Each compound was measured in triplicates. GB1-FRS2_PTB and GB1 were diluted in the protein buffer (100 mM sodium phosphate, 50 mM NaCl, 0.5 mM EDTA, 50 mM arginine, 1 mM TCEP, pH 7.0) to 30 μM. Compounds 3.3, 3.4, 3.18 as well as the 3.18 analogues were dissolved in 100% DMSO at 50 or 100 mM and further diluted to 1 mM with a final DMSO-concentration of 100%. FGFR_PEP was dissolved at 1 mM in the protein buffer supplemented with 10% DMSO. Compound and protein were mixed at 1:1 volume ratio yielding final concentrations of 15 μM protein and 500 μM for the compounds. FGFR_PEP was measured against both GB1-FRS2_PTB and GB1, all other compounds only against GB1-FRS2_PTB. The mixture was incubated for 15 min before measurement. The data was analyzed for both the ratio of signals at 330 and 350 nm and at 350 nm alone. […]

The target in another data set is T2, GB1-FRS2-PTB (Homo sapiens, UniProt Q8WU20).
T2 construct: FRS2-PTB 11-140aa; 6xHis (N); made in house; host or cells: E. coli BL21 (DE3)
T2 sequence (Q8WU20 11-140): T1 sequence (Q8WU20 11-140)
Kind of data set: nanoDSF with GB1-fused PTB domain. It counts as binding. The protocol:
as §1, with “TI,protein. […]” for “TI,protein.”
Purified FRS2_PTB or GB1_FRS2_PTB protein tagged with 6 × Histidine residues and the B1 immunoglobulin binding domain of the streptococcal protein G (GB1) were diluted in the protein buffer (100 mM sodium phosphate, 50 mM NaCl, 0.5 mM EDTA, 50 mM arginine, 1 mM TCEP, pH 7.0) to 30 μM, GB-1 to 40 μM. […] Each compound was measured in triplicates. Protein controls were measured in six replicates in the beginning. The quality of the screen was assessed by the Z-factor. nanoDSF validation studies were performed on a Prometheus® system in high sensitivity capillaries. […] Each compound was measured in triplicates. […] FGFR_PEP was measured against both GB1-FRS2_PTB and GB1, all other compounds only against GB1-FRS2_PTB. […]

Data set [1] deals with T3, GB1-FRS2_PTB (human, UniProt Q8WU20 15-135, 2nd Generation BLUE-NHS dye (in the MST only)).
T3 construct: Fibroblast growth factor receptor substrate 2 (FRS2), human, PTB domain, residues 15 to 135; Vector pEM3BT2; also called GB1-fused PTB domain; source: E. coli BL21 (DE3), purified (Ni-NTA); not shown: His6, N-terminal, kept
T3 sequence (looked up): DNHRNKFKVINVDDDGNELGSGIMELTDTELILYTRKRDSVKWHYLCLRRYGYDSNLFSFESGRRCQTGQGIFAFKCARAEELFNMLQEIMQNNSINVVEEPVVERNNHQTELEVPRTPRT
Description: MST; GB1-FRS2_PTB labelled with BLUE-NHS dye at 25 nM; FGFR_PEP in 1:1 serial dilution from 1 mM to 61.04 nM; 25 C; 100 mM sodium phosphate, 50 mM NaCl, 0.5 mM EDTA, 50 mM arginine, 1 mM TCEP, pH 7.0, with and without DMSO; MST trace analysis. Conditions: both partners purified.

Data set [2] addresses T4, FRS2_PTB (PTB domain of human FRS2) (human, UniProt Q8WU20 15-135).
T4 construct: Fibroblast growth factor receptor substrate 2 (FRS2), human, PTB domain, residues 15 to 135 as the methods state for the PTB domain constructs; The limits 15-135 are stated in the methods sentence that describes the GB1 fusions; also called FRS2-PTB domain; PTB domain of FRS2; source: E. coli BL21 (DE3), purified (Ni-NTA)
T4 sequence (looked up): T3 sequence (looked up)
Kind of data set: nanoDSF (thermal shift); 15 uM protein mixed with 500 uM FGFR_PEP, incubated 15 min; 100 mM sodium phosphate, 50 mM NaCl, 0.5 mM EDTA, 50 mM arginine, 1 mM TCEP, pH 7.0, with DMSO; shift of the inflection or melting temperature against protein alone. The following applies: both partners purified.

Data set [3] deals with T3, GB1-FRS2_PTB. The description is as above. The following applies: both partners purified.

Ends that are not written are not given here.

For the molecule “HSQMAVHKLAKSIPLRRQVTVS [FGFR peptide, reference compound]”, the “nanoDSF shift of the inflection point of the melting curve (ΔTm)” value on FRS2_PTB amounted to 19 ± 0.1 °C. The “nanoDSF shift in the melting temperature” value at GB1-FRS2-PTB is 10.5 ± 0.1 °C.

As usually defined, the Kd is the concentration at which binding is half-saturated. The low end stands for higher affinity, the high end for lower affinity. With HSQMAVHKLAKSIPLRRQVTVS (also called FGFR1 peptide) [FGFR peptide (FGFR_PEP)], binding with GB1-FRS2_PTB [1] was put at a Kd of 1000 ± 200 nM. Further, the “shift of the inflection point of the melting curve (nanoDSF)” value in data set [2] turned out to be 19 ± 0.1 °C. Also, the “shift in the melting temperature (nanoDSF)” value in the data set with GB1-FRS2_PTB [3] came out at 10.5 ± 0.1 °C.
